Biological target: rabbit muscle actin (rabbit) (UniProt P68135)
Assay: SPR; Biacore X100; rabbit muscle actin (10 ug/ml) covalently coupled to a CM5 chip by EDC/NHS, control lane without actin subtracted; formin fragments injected at 12.3 nM to 1 uM (1:3 serial dilution), 120 s injection, 600 s dissociation, 30 ul/min, 25 degrees; running buffer 10 mM HEPES pH 7.4, 150 mM NaCl, 3 mM EDTA, 10 mM MgCl2, 0.2 mM ADP, 0.5 mM DTT

## SYMBIOTIC FORMIN 1 (SYFO1) FH1FH2 domain (domain or fragment)
  Kd: 54.9 nM

Source: publication PMC8231094
